Results taken from the DeepSol protein solubility set.

Test: soluble on expression in E. coli; label from the status in PepcDB or PDB records

Sequence	soluble on expression in E. coli
MATYRKSRAFAPEGFFECEGRGLEWLGAAHAQGGPRVVQVYGWGKDYLDIERVGSASPTPQAARAFGAALARMHDAGAKYFGSAPDGYNGTCYFGPLQDPVKMDTGEWTDPISYFADGRLRPMVNLGVKRGELDKRDVELTERVIEALPDLMGRAAADKPARIHGDLWSGNVMWTADSGQSEAVLIDPAAHGGHREEDLAMLHLFGMSYLSEITEGYQSVHPLKAGWQERITLWQLYPIAGHCVFFGGGYVNEYRSMCRSLLKLEHHHHHH	not soluble
MAMLAYQVSKSIEINKSQSEIIDYLKDFKNWPEWSPWIILEPSCELTYSDNQGHVGAGYQWNGQRIGTGAVVLESTQEHRLDMELHFFRPIKSHGKVTLIVTPSQDGCTVEWQMQSRVPWYLFFLKTMFKSMVEMDYDRGLKMLKSQLETGQILSQLSEIGTRHQDLIHYVGLQGSGTIPELGPIMKKQTQRLYELMQKESLPVSGELFCYYLSMDMKLGHFEFVTCLPVSEMVEVPNGFVFGTIPACETFVIEHKGDYQFLGNAWSLGMNLTRQNGIKVKSKPLGIERYLNNPNETPKAGLRTEVILFKKLEHHHHHH	soluble
MDRADLRIAVLMGTKDGAPFIDEQLQSLLAQSHPLIDLWISDDGSVDGTVPIIEAWKSRWTKGRVTLVQGPREGFAANFRSMILDRRIDADFYAFSDQDDVWEPDRLESAVQWMQAFGAEPPLMFCSRTATMTETGSLAGHSPLFRRPPSFRNALVQSIAGGNTILLNRAARDLLARASARTGFVSHDWWAYLVVTGAGGVVHYDPRPLVRYRQHAANLVGANVSWAARVSRLGRLFKGEFADWTDLNLAGLAVNRDLLTPDAATCLDLFASGRQGSLFQRLRTLLVSGVYRQTLAGTLGLYLAFVLGRILEHHHHHH	not soluble
GMHVYESDVSWIDDRRTEVSVGDHRIEVDSPPEFGGPEGQLYPETLFPSVLASCLLTTFLEFKDRMGINLKSWNSHVTAELGPSPEKGFKFHRIKIHVKIGVNDEDKEKIPRAMQLAEKYCFISRAIRNNVEEIVDYEFV	soluble
MGSDKIHHHHHHMKLGTQNQAFFPENIEEKFAYVKEMGFEGFEIDGKLLVENLDEVKKAIEKTGLPVSTACGGYDGWIGDFIEERRLNGLEEIKAILEALAEVGGQGIVVPAAWGMFTYRLPPMVSPRSQAGDFKAVSESLVYLDKIAGETGTKVYLEPLNRYQDHMINLLSDAQKYIDENELKNVEIIADFYHMNIEEDSIPTVLETYKDSIGHIHVADNHRYQPGSGSLDFKTSFDQLKKNGYNGFLTFECRVRSENPEQAYKDALAHLKSCLI	not soluble
GMMFKWPWKADDESGNAEMPWEQALAIPVLAHLSSTEQHKLTQMAARFLQQKRLVALQGLELTPLHQARIAMLFCLPVLELGIEWLDGFHEVLIYPAPFIVDDEWEDDIGLVHNQRVVQSGQSWQQGPVVLNWLDIQDSFDASGFNLVVHEVAHKLDTRNGDRASGVPLIPLREVAGWEHDLHAAMNNIQDEIDLVGESAASIDAYAATDPAECFAVLSEYFFSAPELFAPRFPALWQRFCHFYRQDPLARRRENGLQDEGDRRIVH	soluble
MSLSQQQKQVQKLAMTQQLQQSIQILQFNTEELAAFVEAKALENPLIDLQVDTQYTTDFPITSRSYTNQDEENNYMNQIPDYHLSLFESLIDQIHLNYRDTYLRTLVLFLVEYIDVNGYLTISLEEAAVKTEASAIQMLDALTLLQQLDPAGVGARNLQECLMLQTERDDTAPNLAYILLEEEFDALVSRKWGPLAKKFGIELAEIQLIFDYIQTLSPAPGNIFDATEELYIRPDLTVRIKEDRIVVISNKAGRPTLNFQENYFKRMQETDDKEVQEYIKDKKNEFEWLERAVNQRGDTILRVGQEIVRRQEAFFLEADRPLKPMTLKEIADALSIHESTVSRAVNGKYLETTFGVFELRSFFSTSILSSEEDGEDVSTTMVKKQLQKLIDQEVKSKPLSDQKLVERLKDSGMEISRRTVAKYREALGIPSSSKRKRYEEGHHHHHH	soluble
MSLNASSISSRFKDLFVTPSIVFDFDGTLAIGHGPVLAYALCVAPEGSKDFLERVRRELRRYDDGQSIYRDGYDIVAKLASELGIDDGTMSVAYGESRKLLGSDLAPVEHVRGIKDILSSLKGHARLVLATNAPENGVHDLLRQWGVADLFDQLHFVVGKPAGLISIISDLQLDGPVLAVGDIYEFDLSPAAQLGADTALVGATATISEAKVSMRGDSIADLPLLAWVSSRVSSEGHHHHHH	soluble
MVDPPGNDDDHGDLDALDFSAAHTNEASPLDALDDYAPVQTDDAEGDLDALHALTERDEEPELELFTVTNPQGSVSVSTLMDGRIQHVELTDKATSMSEAQLADEIFVIADLARQKARASQYTFMVENIGELTDEDAEGSALLREFVGMTLNLPTPEEAAAAEAEVFATRYDVDYTSRYKADD	soluble
DLYRRQQGELKQTKLQNSILLSVSHDLRTPLATIIGTLTTLNEYMPKLNDLERKELLDSATSESHRLHQYIENLLQATKLQHGTLKITKKDEPIANIVRDAVSRLPNYTEKVSMNMDDSVGYLSVSRSL	not soluble
LAAGQLADLVVLSKDYFSVAEEEIKGIESVLTVVDGKVVYAAGHFSPLAPPPIPVLPEWSPVVKVPGHYRSAPPATAKIGAMVQMHQCCGSCGVHGHQHDIARKSSIPVSDEQAFWGVLGCSCFA	not soluble
MATSFYTGGGEDGDGFNPRVHARIAEREGFQLASGSEDPRTLFVANLDPAITDEFLATLFNQIGAVMKAKIIFEGLNDPYAFVEFSDHNQATLALQSHNGRELLEKEMHVTWAFEPREPGENRSKPETSRHFHVFVGDLCSEIDSTKLREAFVKFGEVSEAKIIRDNNTNKGKGYGFVSYPRREDAERAIDEMNGAWLGRRTIRTNWATRKPDEDGERGGDRGDRRGGGGGGRDRYHNQSEKTYDEIFNQAAADNTSVYVGNIANLGEDEIRRAFDRFGPINEVRTFKIQGYAFVKFETKESAARAIVQMNNADIGGQIVRCSWGKSGDSGKPSERGSGGGGGSGNYGYGYGNSGGGGGSGGPGNSQFSNFNQRPPPSGNGGSGGGSGGQNNQYWQYYSQYYNNPHLMQQWNNYWQKDGPPPPPAAAASSTGGN	not soluble
GPGSMQMEEKQAFFVESVDGRKFKMVIRGDLGKLSVAKIRRYLKSYGVPENQLLLAGNRVLEDAMLGEQFGLENEGVLHLREPTTVQHLAPAAVPSTAQSRTQLQQKPELSYEPQSAWRETRYEPAAHDARQMQREIERLQRQVEAAEARNADLEHQLEQVAESSAPYPPRGGAGGARRMSNSSDLDGLQVAKQSLKILAQKLGVSLQFDKNLTCVVGTDADFSILLTYDPATERLYIYSSLLTELPDHPPLRMKLYEVLLEGSLLGREVCGGGVGLSTQNNVVVLTTSLPVRHCSPEALCEVMPLFVETLVRWRSLIDELVR	soluble
DIQMTQSPSSLSASVGDRVTITCQASQDITNHLNWYQQKPGKAPKLLIYDASNLETGVPSRFSGRGSGTHFTFTISSLQPADIATYYCQEYDYLPQTFGGGTKVEIK	soluble
DKFNQFINRVLSHEGGYANHPKDPGGETNWGITKRTAQANGYNGSMRAMTREQAISIYRKAFWERYRADQMPEAVAFQFFDACVNHGYGNAARMLQRAAGVPDDGVIGAVSLKAINSLPENDLLLRFNAERLVFYTKLGTFTSFGKGWVRRVAQN	not soluble
MPKKRTPYETWRKNIRPIIWKRDNKQCIRCKKTVLLSECHIDHIISGLHGDNRLQNLRTLCRRCHVLRSDRLHRGMIAKALKDGVITADWRQYVWEEESLLKRLEHHHHHH	not soluble
MGSDKIHHHHHHMFISDLHIGDGSAKDDFFFDKELVNFIEDMSQTEDVELFVVGDGFEILESRTVKEIGLVSFEEVVETLDETVIDEIEKKHSEVFETLKKFSRRHRVYYVVGNHDYHILKNKKLQNALKNRFEKFEILPYYYDPHSKLLVLHGNQFDVINRFTVDRKTKKVIPPLGDYIARYMMINFDSQVVNFAPEDVIRDYDNVRPLLDVFHWFDYVTEIYDLSVDLVELWLKSFLSMLKTREARKWMKNNFPRTHWLSKVFVNRFGGVELGKVLVRSIYTLRKLRRVDYLQKWAKSILKGNLRWKEFMTGYSGDLHEVEEVDILVMGHVHHFAYRIVPTTQGKKLYVNCGSWRPVLEKLGIRKRHGFHRKAELPKIIMDFSGKNVEVKASITNVLGKIQGGDL	not soluble
RDTVVTLLLDNSGSMRGRPISIAAICADVLARTLERCNVKVEILGFTTRAWKGGLAREAWLNEGRPQQPGRLNDLRHIIYKAADAPMRRTRQNLGLMMKEGLLKENIDGEALEWAHRRMLGRREQRKILMVISDGAPVDDSTLSVNPANYLEKHLRDVIAMVERRKQVELLAIGIGHDVTRYYQRAVTITDVEQLAGAMTEQLAALFDSDPRARARVMGMKRAS	not soluble
MCGRFVLKATPEEIADYLDLIGLEDFPARFNIAPTQPILVVMEGEQQERGSNLPNRRAVLVRWGFMPGWVKDPKDFPLLINARSETAIGKASFRAAMRHRRVLIPATGFYEWRRPPKEEGGKAQPYFIRPKNGGIVAFAGLMETWSSADGSEVDTGAILTTAANAAIGRIHDRMPVVIAPEDFSRWLDCKTQEPREVADLMRPVQGDFFEMIPVSDKVNKVANVGADLIDPVPESAPLAKVRPAKDDGQMSLFLEHHHHHH	not soluble
MSTTRKLILANIHGVDKPGVTAELTAILAKHNAFILDIGQADIHNNLSLGILFQTDESHSGSILKDLLFKSYELDVTVRFEPITEEAYSEWVGMQGRNRYIITVVARKITAEMIAGIARSSAEQGLNIDDIKRLTGRIPLNETDRSPKASVEFSMRGTPTDIEKLQRNFMEMASQLNMDISFQRESMFR	not soluble
MNNFFKHTLETHTPQSMSKITSYIREDIKNSNIENGIVVVYCPHTTAGITINENADPDVVKDLIYGFEKVYPTNDHKYRHFEGNSHSHLKSSTVGVSQQLILHRGRLILGQWQDVYFCDFDGPRNRTFYVKILEGLEHHHHHH	not soluble
MGSDKIHHHHHHMAAPDTPPDSPPPISAVEMPSGKDAGTENFPVGSVLLPARLRPHVARFYAFARAIDDIADSPDLDAAAKIDRLQGFEEAITGRDTTDPAYAKGHALRVSLEATGVPAIHGVELIAAFKQDAVKGRYATWAEMMDYCRLSAAPVGRYLIDLHGGSRAGYASSDALCVALQVINHLQDCQDDFRVLDRVYLPADWLAAEGASVSDLDRAACTPGLRRVLDRCLEGTRRLLDAARPLPGDIIDRRLGLEAAVIVSIAQTLTGRLARQDPLAQRVKLGKAATAFCAARACAAYLMVPGAYR	not soluble
MYAALFPGQGSHRVGMGRALYEASPAAKEVLDRAEAALPGLLKLMWEGPEEALTLTENQQPALLAAGYAAYRAFLEAGGKPPALPEGHSLGEWTAHVAAGTLELEDALRLVRLRGRYMQEAVPVGEGAMAAVLKLPLEEIQKALEGLEGVEIANLNAPEQTVISGRRQAVEEAAERLKERRARVVFLPVSAPFHSSLMAPARKRLAEDLAQVPLRRPRFPVYSNVTARPEEDPERIRALLLEQITAPVRWVEILRDMEARGVKRFLEFGSGEVLKGLVLRTLKEAEALSVQDPDSLRKALEVERA	soluble
MGSDKIHHHHHHMPGNSSGVAAVERAVSMLEAFTDVDYSLTLGELARRTELDKSTVLRIARSLAKSSMLVRNDDASWRLGPKLVRLGGLYQSTFKSSAIVEPLLAQISDESGESAAVYVKEGVVRVCLHRHDSTQSIRHSARVGDAMPLDRGAPGRVILAFTGSSGKLYDDIRAKGFHVTIGERDPQVASVAVPVYRDGQALFGSLALTGPPSRFNEEAVSKNLEILRVAARKLSAALGGDPG	not soluble
